Data as given in patent US20210040232A1 (Regeneron, published 2021).

T1: soluble Macaca fascicularis CTLA-4 expressed with a C-terminal myc-myc-polyhistidine tag (Macaca fascicularis)
T1 construct: soluble protein; also called mf CTLA-4.mmh; mfCTLA4.mmh
T1 chain: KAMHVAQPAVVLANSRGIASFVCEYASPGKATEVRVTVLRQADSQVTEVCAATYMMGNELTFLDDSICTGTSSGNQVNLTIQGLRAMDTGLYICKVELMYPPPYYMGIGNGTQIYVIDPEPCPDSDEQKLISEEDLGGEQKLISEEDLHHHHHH

B1: H1H19274P (antibody, human IgG1, V domains shown)
VH: QVQLQESGPGLVKPSETLSLTCTVSGGSINSYYWTWIRQPPGKGLEWIGYVYYSGSTTYNPSLKSRVTISVDTSKNQFFLNLNSVTAAETAVYYCARGTLGYYGMDVWGQGTTVTVSS
VL: EIVLTQSPGTLSLSPGERATLSCRASQSFSNNYLAWYQQKPGQAPRLLIYGTSIRATGIPDRFSGSGSGTDFTLAISRLEPEDFAVYYCQQYGRSPLTFGGGTKVEIK
B2: H1H19264P (antibody, human IgG1, V domains shown)
VH: QVQLVQSGAEVKKPGASVKVSCKASDYTFTSYGISWVRQAPGQGLEWMGWISVYNGNINYAQKFKGRVTMTTDTSTSTAYMELRSLRSDDMAVYYCARVTQFGMDVWGQGTTVTVSS
VL: DIQMTQSPSSLSASVGDRVTITCRASQSISSNLNWYQQNPGKAPKLLIYTTSSLQGGVPSRFSGSGSGTDFTLTISSLQPEDFATYYCQQSFRTPFTFGPGTKVDIK
B3: H1H19312P (antibody, human IgG1, V domains shown)
VH: QVQLQESGPGLVKPSETLSLTCTVSGGSISSYHWSWIRQPLGKGLEWIGYIYYSGSTNYNPSLKSRVTISVDTSKNQFSLKLSSVTAADTAVYYCARGGSSIWPFDYWGQGTLVTVSS
VL: DIQMTQSPSTLSASVGDRVTITCRASQSISSWLAWYQQKSGKAPKLLISKASTLESGVPSRFSGSGSGTEFTLTISSLQPDDFATYYCQQYNIYSWTFGQGTKVEIK
B4: H1H19278P (antibody, human IgG1, V domains shown)
VH: QVQLVESGGGVVQPGRSLRLSCAASGFTFSSYGMNWVRQAPGKGLEWVAVTWYDGSNKHYADSVKGRFTISRDNSKNTLYLQMYSLRAEDTAMYYCVRGGHLGAFDIWGQGTMVTVSS
VL: EIVLTQSPGTLSLSPGERATLSCRASQSVSSYLAWYQQKPGQAPRLLIYGASSRATGIPDRFSGGGSGTDFTLTISRLEPEDFAVYYCQQYGSSPFTFGPGTKVDIK
B5: H1H19284P (antibody, human IgG1, V domains shown)
VH: EVQLVESGGGLVQPGGSLRLSCAASGFTLSNYVMTWVRQAPGKGLEWVSAISGRGGNSYYADSVKGRFSISRDHSKNTLYLQVNSLRAEDTAVYYCAKAERGYSYGFNWFDPWGQGTLVTVSS
VL: DIQMTQSPSSVSASAGDRVTITCRASQGISSWLAWYQQKPGKAPKLLIYAASSLQSGVPSRFSGSGSGTDFTLTISSLQPEDFASYYCQQGNNFPLTFGGGTKVEIK
B6: H1H19280P (antibody, human IgG1, V domains shown)
VH: QLQLQESGPGLVKPSETLSLTCIVSGGSTSSNTYYWGWIRQPPGKGLEWIGTIHYSGNPYYDPSLKSRVTISVDTSKNHFSLKLNSVTAADTAVYYCTRQYINFFDFWGQGTLVTVSS
VL: EIVLTQSPATLSLSPGERVTLSCRASQSISRYLAWYQQKPGQAPRVLIYDASNRATDIPARFSGSGSGTDFTLTISSLEPEDFAVYYCQQRSNWPITFGQGTRLEIK
B7: H1H19283P (antibody, human IgG1, V domains shown)
VH: QVQLVESGGGLVKPGGSLRLSCAASGFTFSDYYMTWIRQAPGKGLEWVSYISSSGGNIFYADSVKGRFTISRDNAKNSLYLQMNSLRGEDTAVYYCARGLEPYHYYYGMDVWGQGTTVTVSS
VL: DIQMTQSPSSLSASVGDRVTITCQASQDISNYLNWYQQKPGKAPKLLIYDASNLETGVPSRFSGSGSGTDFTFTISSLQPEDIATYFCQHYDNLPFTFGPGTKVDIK
B8: H1H19279P (antibody, human IgG1, V domains shown)
VH: QVQLVQSGAEVKKPGASVKVSCKASGYTFTDYYIHWVRQAPGQGLEWMGWINPNNGVSNYAQKFQGRVTMTRDTSISTAYMDLIRLRSDDTAVYYCARERASWDYNGVDVWGQGTTVTVSS
VL: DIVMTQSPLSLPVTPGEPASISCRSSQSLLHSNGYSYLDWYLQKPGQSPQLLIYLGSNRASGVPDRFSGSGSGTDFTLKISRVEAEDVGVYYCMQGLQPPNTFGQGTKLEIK
B9: H1H19294P (antibody, human IgG1, V domains shown)
VH: QVQLVQSGAEVKMSGASVRVSCKASGYTFTSYGISWMRQAPGQGLEWMGWITAYNGNSNYAQKLQGRVTMTTDTSTGTAYMELRSLTSDDTAVYYCARRGDYLGVFPYWGQGTLVTVSS
VL: DIQMTQSPSSLSASVGDRVTITCRASQSISSYLNWYQQKPGKAPNLLIYTASSLQSGVPSRFSGSGSGTDFTLTISSLQPEDFATYYCQQSYSSPLTFGGGTKVEIK
B10: H1H19314P2 (antibody, human IgG1, V domains shown)
VH: QVQLVQSGAEVKKPGASVKVSCKASGYTLSSYGISWVRQAPGQGLEWMGWISAYNGNTNYAQKLQGRLTMTTDTSTSTAYMELRSLRSDDTAVYYCSRDGPFKISFFGMDVWGQGTTVTVSS
VL: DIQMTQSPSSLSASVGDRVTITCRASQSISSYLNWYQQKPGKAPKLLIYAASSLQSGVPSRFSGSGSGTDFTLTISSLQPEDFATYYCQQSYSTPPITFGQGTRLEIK
B11: H1H19305P (antibody, human IgG1, V domains shown)
VH: QVQLQESGPGLVKPSQTLSLTCTVSGGSITSGGYYWSWIRQHPGKGLEWIGYIFYSGITNYNPSLKSRVTISVDTSKNQFSLKLTSVTAADTAVYYCATYNSLRLYYGMDVWGQGTTVTVSS
VL: DVVMTQSPLSLPVILGQPASISCRSSQSLVYGDGNTYLNWFQQRPGQSPRRLIYKVSNRDSGVPDRFSGSGSGTDFTLKISRVEAEDVGVYYCMQSTHWPLTFGGGTKVEIK
B12: H1H19307P (antibody, human IgG1, V domains shown)
VH: EVQLVESGGGLVQPGGSLRLACAASGFTFSDYYMDWVRQVPGKGLEWVGRSRDKANSFTTEYVASVKGRFTISREDSKNSVYLQMNSLKTEDTAVYYCARTNYDFSLDVWGQGTTVTVSS
VL: DIQMTQSPSSLSASVGDRVTITCRASQDINNYLAWFQQKPGNAPKSLIYAASSLQSGVPSKFSGSGSGTDFTLTISSLQPEDFATYYCQQYSTYPITFGQGTRLEIK

biological target: T2, soluble human CTLA-4 expressed with a C-terminal myc-myc-polyhistidine tag (human); assay: SPR, mAb capture, 25 C
T2 construct: soluble protein; also called hCTLA-4.mmh; hCTLA4.mmh

Binder	Kd	koff	kon	t1/2
B1	1.43 nM	0.00076 s⁻¹	530000 M⁻¹ s⁻¹	15.2 min
B2	12.1 nM	0.000731 s⁻¹	60400 M⁻¹ s⁻¹	15.8 min
B3	3.29 nM	0.00105 s⁻¹	320000 M⁻¹ s⁻¹	11 min
B4	2.25 nM	0.000402 s⁻¹	179000 M⁻¹ s⁻¹	28.8 min
B5	2.49 nM	0.000369 s⁻¹	148000 M⁻¹ s⁻¹	31.3 min
B6	1.03 nM	0.000346 s⁻¹	337000 M⁻¹ s⁻¹	33.4 min
B7	3.75 nM	0.000828 s⁻¹	221000 M⁻¹ s⁻¹	14 min
B8	0.752 nM	0.000261 s⁻¹	346000 M⁻¹ s⁻¹	44.3 min
B9	1.13 nM	0.000323 s⁻¹	285000 M⁻¹ s⁻¹	35.7 min
B10	9.87 nM	0.00113 s⁻¹	115000 M⁻¹ s⁻¹	10.2 min
B11	4.19 nM	–	–	9.5 min
B12	1.31 nM	0.000284 s⁻¹	217000 M⁻¹ s⁻¹	40.6 min

Biological target: T1, soluble Macaca fascicularis CTLA-4 …
Assay: SPR, mAb capture, 25 C

Binder	Kd	koff	kon	t1/2
B1	0.887 nM	0.000463 s⁻¹	522000 M⁻¹ s⁻¹	25 min
B2	20.3 nM	0.000994 s⁻¹	49000 M⁻¹ s⁻¹	11.6 min
B3	2.28 nM	0.00076 s⁻¹	333000 M⁻¹ s⁻¹	15.2 min
B4	6.11 nM	0.00101 s⁻¹	166000 M⁻¹ s⁻¹	11.4 min
B5	1.57 nM	0.000305 s⁻¹	194000 M⁻¹ s⁻¹	37.9 min
B6	0.964 nM	0.000309 s⁻¹	320000 M⁻¹ s⁻¹	37.4 min
B7	3.11 nM	0.000683 s⁻¹	220000 M⁻¹ s⁻¹	16.9 min
B8	0.763 nM	0.000259 s⁻¹	340000 M⁻¹ s⁻¹	44.6 min
B9	1.02 nM	0.000269 s⁻¹	263000 M⁻¹ s⁻¹	43 min
B10	8.57 nM	0.000913 s⁻¹	107000 M⁻¹ s⁻¹	12.6 min
B12	1.4 nM	0.000292 s⁻¹	209000 M⁻¹ s⁻¹	39.5 min

biological target: T3, recombinant hCTLA-4-mFc (human CTLA-4 extracellular domain with a C-terminal Fc portion of mouse IgG2a) (human); assay: competition ELISA, 400 pM hCTLA-4-mFc on plate-coated hB7-2-hIgG1-6His
T3 construct: also called dimeric CTLA-4 protein
T3 sequence (chain, as listed by the source limits assumed): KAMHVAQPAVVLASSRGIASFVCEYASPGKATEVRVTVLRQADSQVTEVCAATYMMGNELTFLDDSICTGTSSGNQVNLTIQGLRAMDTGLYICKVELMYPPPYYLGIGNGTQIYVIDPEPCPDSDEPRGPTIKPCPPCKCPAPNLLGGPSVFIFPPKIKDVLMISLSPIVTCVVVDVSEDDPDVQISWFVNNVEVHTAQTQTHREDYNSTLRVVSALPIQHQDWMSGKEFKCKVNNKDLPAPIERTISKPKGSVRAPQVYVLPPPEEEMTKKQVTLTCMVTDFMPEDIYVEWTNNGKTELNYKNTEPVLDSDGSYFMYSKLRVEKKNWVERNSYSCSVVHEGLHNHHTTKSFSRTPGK

Binder	% Blockade	IC50
B1	100%	0.25 nM
B2	43%	–
B3	99%	0.51 nM
B4	100%	0.54 nM
B5	99%	0.31 nM
B6	100%	0.2 nM
B7	99%	1.2 nM
B8	100%	0.22 nM
B9	99%	0.25 nM
B10	7%	–
B11	99%	0.36 nM
B12	99%	0.29 nM

biological target: T4, human CTLA-4 (amino acids M1-N223) on stably transfected VI-fibroblast cells (human, UniProt P16410 36-223); assay: ECL cell binding, VI-fibroblast/hCTLA-4 cells;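 further: antibodies bound to the cells on carbon electrode plates, detected via SULFO-TAG anti-IgG secondary (1 h, RT), electrochemiluminescence read as RLU over a concentration range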
T4 construct: also called VI-fibroblast/hCTLA-4
T4 sequence (P16410 36-223 limits assumed): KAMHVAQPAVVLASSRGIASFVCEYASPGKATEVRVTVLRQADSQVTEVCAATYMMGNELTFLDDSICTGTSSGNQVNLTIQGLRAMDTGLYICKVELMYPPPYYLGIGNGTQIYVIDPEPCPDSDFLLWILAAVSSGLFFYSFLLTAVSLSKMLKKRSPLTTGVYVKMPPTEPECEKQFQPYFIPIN

Binder	EC50	ratio of RLU signal to parental VI-fibroblast at 0.4 nM Ab
B1	0.39 nM	18 ratio
B3	0.7 nM	14 ratio
B4	0.22 nM	19 ratio
B5	–	7 ratio
B6	1.3 nM	15 ratio
B7	0.79 nM	7 ratio
B8	0.24 nM	18 ratio
B9	0.68 nM	10 ratio
B10	3.4 nM	8 ratio
B11	0.84 nM	–
B12	3.7 nM	7 ratio

biological target: T3, recombinant hCTLA-4-mFc (human CTLA-4 …); assay: competition ELISA, 200 pM hCTLA-4-mFc on plate-coated hB7-1-hIgG1-6His

Binder	% Blockade	IC50
B1	99%	0.13 nM
B2	8%	–
B3	97%	0.2 nM
B4	99%	0.32 nM
B5	98%	0.17 nM
B6	99%	0.11 nM
B7	96%	9.7 nM
B8	97%	0.21 nM
B9	99%	0.15 nM
B10	0%	–
B11	98%	0.19 nM
B12	99%	0.18 nM
